For one assay, the target named is human uPAR (Homo sapiens, UniProt Q03405). The assay can be described thus: SPR binding of conjugate or uPA to immobilized His-tagged recombinant human uPAR. How it is done:
SPR was also applied to determine the KD-value of binding of the uPAR-binding conjugate to uPAR.
The uPAR-binding conjugates as well as the endogenous ligand uPA were analyzed in 2-fold dilution series from low to high concentration with a running buffer injection in between each injection. Injection of uPAR-binding conjugate or uPA (at a rate of 50 μL/minute) was performed for 120 seconds (association), and dissociation was assessed for 120 s (at a rate of 50 μL/minute). Running buffer was PBS supplemented with 0.01% Tween-20 and 50 μM EDTA).
Binding affinities were determined using the above described SPR-based approach, measuring binding affinities (KD) of the uPAR-targeting conjugates to immobilized human uPAR protein (the tumor target protein).

The target of the next assay is uPAR·uPA interaction (Homo sapiens, UniProt Q03405). The assay can be described thus: SPR competition: inhibition of the uPAR·uPA interaction (immobilized human uPA, 2.5 nM uPAR). It counts as binding. The note with it: uPAR 2.5 nM pre-incubated 10 minutes with conjugate. How it is done:
Surface plasmon resonance (SPR) was applied to determine the IC50-value of uPAR-targeting conjugate for its ability to inhibit the uPAR·uPA interaction. In brief, human recombinant uPA, which is the natural ligand for uPAR, was immobilized to the SPR sensor chip. Binding of uPAR at a concentration of 2.5 nM in the absence of UPAR-binding conjugate was examined, followed by analyses of a fixed uPAR concentration (2.5 nM) incubated with a 2-fold dilution series of uPAR-binding conjugate pre-incubated for 10 minutes at room temperature prior to injection. uPAR injection (at a rate of 50 μL/minute) was performed for 300 s (association), and dissociation was assessed for 500 s (at a rate of 50 μL/minute). The uPAR/uPAR-binding conjugate complex was injected from low to high concentration with a regeneration step followed by a buffer injection in between each injection. Regeneration was performed for 20 s by injection of 0.5 M NaCl+0.1 M Acetic acid at a 30 μL/min flow rate, followed by running buffer wash (running buffer: PBS supplemented with 0.01% Tween-20 and 50 μM EDTA).
From this type of SPR analysis, the IC50 values for uPAR-targeting conjugates were determined.
The top signal represents uPAR binding in the absence of uPAR-targeting conjugate.

Assay [1] concerns the target human uPAR (urokinase Plasminogen Activator Receptor), in solution at 2.5 nM in the competition SPR assay (human) (UniProt Q03405). The assay can be described thus: SPR competition: 2.5 nM uPAR pre-incubated with dilution series of conjugate, injected over immobilised human uPA.
Assay [2] deals with recombinant human uPAR containing a His-tag (immobilized to a NTA chip) (human) (UniProt Q03405). The assay can be described thus: SPR, His-tagged human uPAR on NTA chip, steady-state responses.
recombinant human uPAR containing a His-tag (immobilized to a NTA chip) (human), sequence (Q03405 23-305 limits assumed): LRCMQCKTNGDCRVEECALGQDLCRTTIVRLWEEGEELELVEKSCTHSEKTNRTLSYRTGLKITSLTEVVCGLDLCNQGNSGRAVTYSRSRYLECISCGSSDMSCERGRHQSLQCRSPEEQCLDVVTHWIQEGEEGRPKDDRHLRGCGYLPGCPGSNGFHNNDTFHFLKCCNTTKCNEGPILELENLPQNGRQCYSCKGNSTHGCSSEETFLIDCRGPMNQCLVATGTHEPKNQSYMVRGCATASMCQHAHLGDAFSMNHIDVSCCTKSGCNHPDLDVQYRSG

Primed or numbered codes have the meaning given here. [ ]: non-standard residue; d: D form. Cha = N[C@@H](CC1CCCCC1)C(=O)O; IRDye800CW′ = not defined here; AEEA = NCCOCCOCC(=O)O A value given as a limit tells only on which side of the number the result lay.

uPAR·uPA interaction, sequence (Q03405 23-305): as the sequence (Q03405 23-305 limits assumed) above
human uPAR (urokinase Plasminogen Activator Receptor), in solution at 2.5 nM in the competition SPR assay (human), sequence (Q03405 23-305 limits assumed): as above

Consider `CC(C)C[C@H](NC(=O)[C@H](Cc1ccc(O)cc1)NC(=O)[C@@H](CCCNC(=N)N)NC(=O)[C@@H](CO)NC(=O)[C@H](Cc1ccccc1)NC(=O)[C@H](CC1CCCCC1)NC(=O)[C@H](CC(=O)O)NC(=O)COCCOCCNC(=O)COCCOCCNC(=O)[C@H](CCC(=O)O)NC(=O)[C@H](CCC(=O)O)NC(=O)CCCCCN1C(=CC=C2CCCC(C=CC3=[N+](CCCCS(=O)(=O)[O-])c4ccc(S(=O)(=O)O)cc4C3(C)C)=C2Oc2ccc(S(=O)(=O)O)cc2)C(C)(C)c2cc(S(=O)(=O)O)ccc21)C(=O)N[C@@H](Cc1c[nH]c2ccccc12)C(=O)N[C@@H](CO)C(=O)O` [Compound example 2, IRDye800CW-EE-020c-020c-DChaFsrYLWS-OH], for which, at human uPAR (on-rate binding), the kon was at least 4.6e+06 M⁻¹ s⁻¹.
For “Compound example 1: uPAR-targeting conjugate based on the fluorophore ICG and the peptide AE105 (DXFSRYLWS; D-residues; non-natural residues; cyclised or stapled)”, the Kd in the assay with human uPAR (KD from steady state binding responses where Kon too fast) is 2000 nM. Further, in the assay with human uPAR (on-rate binding), the Kon is at least 4.6e+06 M⁻¹ s⁻¹. The same molecule came in with a half-inhibitory concentration (IC50) with uPAR·uPA interaction of 7 nM.
As for {IRDye800CW′}-EE[AEEA][AEEA]D[Cha]F[dS][dR]YLWS-OH, in assay [1], the IC50 is 24 nM. In addition, in assay [2], the dissociation constant (Kd) worked out at 325 nM.

(Values after patent publication US20240066142A1, “A UPAR (UROKINASE PLASMINOGEN ACTIVATOR RECEPTOR)-TARGETING CONJUGATE” (FLUOGUIDE A/S, priority 2021, published 2024).)
